Assay results reported in publication PMC9242475.

Tests used:
[1] = biological target: HAdV-D37 protein IIIa tagged with C-terminal 3X FLAG (human adenovirus D type 37 (HAdV-D37)); assay: SPR; […] (80 nM or 2.5 nM) […]
[2] = biological target: HAdV-D37 protein IIIa tagged with C-terminal 3X FLAG (human adenovirus D type 37 (HAdV-D37)); assay: SPR; BIAcore T200, 25°C, […] (25 mM HEPES, 150 mM NaCl, 0.05% P20, 2 mM DTT, pH 7.4); […]; 1:1 binding model

Chain of partial recombinant RANBP2 protein (#ab268915, Abcam) (domain or fragment) (P49792 1346-1815): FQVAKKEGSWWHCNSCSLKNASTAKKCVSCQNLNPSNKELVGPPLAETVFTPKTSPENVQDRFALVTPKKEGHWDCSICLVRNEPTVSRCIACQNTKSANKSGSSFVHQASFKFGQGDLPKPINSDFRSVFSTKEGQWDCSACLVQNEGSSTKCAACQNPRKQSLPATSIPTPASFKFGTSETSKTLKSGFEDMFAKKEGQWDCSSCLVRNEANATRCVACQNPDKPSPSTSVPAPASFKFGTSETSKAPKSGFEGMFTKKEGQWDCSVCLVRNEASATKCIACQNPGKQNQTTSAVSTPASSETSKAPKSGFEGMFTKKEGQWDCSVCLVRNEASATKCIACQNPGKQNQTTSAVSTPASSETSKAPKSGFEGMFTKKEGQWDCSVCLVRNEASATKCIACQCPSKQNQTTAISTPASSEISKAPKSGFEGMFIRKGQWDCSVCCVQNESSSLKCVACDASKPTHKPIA

Row | Substance | Kd [1] | Kd [2] | koff [2] | kon [2]
1 | partial recombinant RANBP2 protein (#ab268915, Abcam) (domain or fragment) | 122 nM | 13.7 nM | 0.000658 s⁻¹ | 48000 M⁻¹ s⁻¹
2 | recombinant USP9X protein (#ab271784, Abcam) (from UniProt Q93008 1-2554) (enzyme) | 1.8 nM | 32 nM | 0.00119 s⁻¹ | 37200 M⁻¹ s⁻¹
